Laboratory results from the Immune Epitope Database (IEDB).
Values belong to the sequence of their own block, whether it stands above or below them.

Columns and labels:
[1] = target: HLA-A*30:01; assay: IEDB peptide-MHC binding, purified MHC/competitive/fluorescence; filed as Kd, often an IC50 or EC50 that approximates it; ≥ and ≤ were set here for values at or beyond the usual limits of such assays; conditions: source organism: Orthomarburgvirus marburgense
[2] = target: HLA-A*26:01; assay: as above; conditions: source organism: Orthomarburgvirus marburgense
[3] = target: HLA-A*11:01; assay: as above; conditions: source organism: Orthomarburgvirus marburgense
[4] = target: HLA-A*02:01; assay: as above; conditions: source organism: Orthomarburgvirus marburgense
[5] = target: HLA-A*02:03; assay: as above
[6] = target: HLA-A*31:01; assay: as above; conditions: source organism: Orthomarburgvirus marburgense
[7] = target: HLA-B*08:01; assay: IEDB peptide-MHC binding, purified MHC/direct/fluorescence; filed as Kd, often an IC50 or EC50 that approximates it; ≥ and ≤ were set here for values at or beyond the usual limits of such assays
[8] = target: HLA-B*27:05; assay: as above
[9] = target: HLA-A*69:01; assay: as above
[10] = target: HLA-B*07:02; assay: as above
[11] = target: HLA-B*15:01; assay: as above
[12] = target: HLA-B*15:02; assay: as above
[13] = target: HLA-B*15:17; assay: as above
[14] = target: HLA-B*46:01; assay: as above
[15] = target: HLA-B*58:01; assay: as above
[16] = target: HLA-B*48:01; assay: as above
[17] = target: HLA-A*01:01; assay: as above
[18] = target: HLA-B*57:01; assay: as above
[19] = target: HLA-A*68:02; assay: as above; conditions: source organism: Marburg virus - Musoke, Kenya, 1980
[20] = target: HLA-B*73:01; assay: IEDB peptide-MHC binding, purified MHC/competitive/fluorescence; filed as Kd, often an IC50 or EC50 that approximates it; ≥ and ≤ were set here for values at or beyond the usual limits of such assays; conditions: source organism: Brucella abortus S19
[21] = target: HLA-A*02:11; assay: as above; conditions: source organism: Corynebacterium glutamicum ATCC 13032
[22] = target: HLA-A*02:12; assay: as above; conditions: source organism: Corynebacterium glutamicum ATCC 13032
[23] = target: HLA-A*02:06; assay: as above; conditions: source organism: Corynebacterium glutamicum ATCC 13032
[24] = target: HLA-A*02:50; assay: as above; conditions: source organism: Corynebacterium glutamicum ATCC 13032
[25] = target: HLA-A*03:01; assay: IEDB peptide-MHC binding, purified MHC/direct/fluorescence; filed as Kd, often an IC50 or EC50 that approximates it; ≥ and ≤ were set here for values at or beyond the usual limits of such assays
[26] = target: HLA-B*40:01; assay: as above
[27] = target: HLA-A*26:01; assay: as above; conditions: source organism: Corynebacterium glutamicum
[28] = target: HLA-A*11:01; assay: as above
[29] = target: HLA-A*02:01; assay: as above
[30] = target: HLA-A*31:01; assay: as above
[31] = target: HLA-B*15:09; assay: IEDB peptide-MHC binding, purified MHC/competitive/fluorescence; filed as Kd, often an IC50 or EC50 that approximates it; ≥ and ≤ were set here for values at or beyond the usual limits of such assays; conditions: source organism: Vibrio cholerae 2740-80
[32] = target: HLA-B*39:01; assay: as above; conditions: source organism: Vibrio cholerae 2740-80
[33] = target: HLA-B*51:01; assay: IEDB peptide-MHC binding, purified MHC/direct/fluorescence; filed as Kd, often an IC50 or EC50 that approximates it; ≥ and ≤ were set here for values at or beyond the usual limits of such assays; conditions: source organism: Vibrio cholerae
[34] = target: HLA-B*08:02; assay: as above; conditions: source organism: Vibrio cholerae V52
[35] = target: HLA-B*18:01; assay: as above
[36] = target: HLA-B*57:01; assay: IEDB peptide-MHC binding, purified MHC/competitive/fluorescence; ≥ and ≤ were set here for values at or beyond the usual limits of such assays; conditions: source organism: Homo sapiens
[37] = target: HLA-A*26:02; assay: IEDB peptide-MHC binding, purified MHC/competitive/fluorescence; filed as Kd, often an IC50 or EC50 that approximates it; ≥ and ≤ were set here for values at or beyond the usual limits of such assays; conditions: source organism: Vaccinia virus Tian Tan
[38] = target: HLA-B*15:17; assay: as above; conditions: source organism: Vaccinia virus Tian Tan
[39] = target: HLA-A*68:02; assay: as above; conditions: source organism: Vaccinia virus Tian Tan
[40] = target: HLA-A*26:03; assay: IEDB peptide-MHC binding, purified MHC/direct/fluorescence; filed as Kd, often an IC50 or EC50 that approximates it; ≥ and ≤ were set here for values at or beyond the usual limits of such assays; conditions: source organism: Variola virus
[41] = target: HLA-B*44:02; assay: as above; conditions: source organism: Camelpox virus CMS
[42] = target: HLA-A*30:02; assay: IEDB peptide-MHC binding, purified MHC/competitive/radioactivity; filed as Kd, often an IC50 or EC50 that approximates it; ≥ and ≤ were set here for values at or beyond the usual limits of such assays; conditions: source organism: Dengue virus 3 Martinique/1243/1999
[43] = source organism: Ravn virus - Ravn, Kenya, 1987
[44] = source organism: Marburg virus - Musoke, Kenya, 1980
[45] = source organism: Corynebacterium glutamicum
[46] = source organism: Vibrio cholerae
[47] = source organism: Camelpox virus CMS
[48] = source organism: dengue virus type 3

Sequence: ALFHKVQSY
- Kd [1]: 0.438 µM
- Kd [2]: 1.14 µM
- Kd [3]: 1.94 µM
- Kd [4]: 1.31 µM
- Kd ([5]; source organism: Orthomarburgvirus marburgense): 1.56 µM
- Kd [6]: 3.92 µM
- Kd [7, 43]: ≥ 20 µM
- Kd [8, 44]: ≥ 20 µM
- Kd [9, 44]: ≥ 20 µM
- Kd [10, 44]: ≥ 20 µM
- Kd [11, 44]: 0.0205 µM
- Kd [12, 43]: 0.038 µM
- Kd [13, 44]: 0.0046 µM
- Kd [14, 44]: ≥ 20 µM
- Kd [15, 44]: ≥ 20 µM
- Kd [16, 44]: ≥ 20 µM
- Kd [17, 44]: ≥ 20 µM
- Kd [18, 44]: ≥ 20 µM
- Kd [19]: ≥ 20 µM

Sequence: NEAWGKKPV
- Kd [20]: ≥ 20 µM

- Kd [21]: ≤ 0.0001 µM
- Kd [22]: ≤ 0.0001 µM
- Kd [23]: ≤ 0.0001 µM
- Kd [24]: ≤ 0.0001 µM
- Kd ([5]; source organism: Corynebacterium glutamicum ATCC 13032): ≤ 0.0001 µM
- Kd [7, 45]: ≥ 20 µM
- Kd [25, 45]: ≥ 20 µM
- Kd [8, 45]: ≥ 20 µM
- Kd [9, 45]: 0.404 µM
- Kd [10, 45]: ≥ 20 µM
- Kd [26, 45]: ≥ 20 µM
- Kd [27]: ≥ 20 µM
- Kd [11, 45]: ≥ 20 µM
- Kd [28, 45]: ≥ 20 µM
- Kd [29, 45]: 0.0728 µM
- Kd [15, 45]: ≥ 20 µM
- Kd [17, 45]: ≥ 20 µM
- Kd [30, 45]: ≥ 20 µM
Sequence: FLPGQYMNI

Sequence: FPLTQRDVL
- Kd [31]: 0.358 µM
- Kd [32]: 0.0144 µM
- Kd [25, 46]: ≥ 20 µM
- Kd [8, 46]: ≥ 20 µM
- Kd [9, 46]: 0.719 µM
- Kd [33]: 2.82 µM
- Kd [34]: ≥ 20 µM
- Kd [10, 46]: 0.046 µM
- Kd [26, 46]: ≥ 20 µM
- Kd [35, 46]: 1.9 µM
- Kd [11, 46]: ≥ 20 µM
- Kd [28, 46]: ≥ 20 µM
- Kd [13, 46]: ≥ 20 µM
- Kd [29, 46]: ≥ 20 µM
- Kd [14, 46]: ≥ 20 µM
- Kd [15, 46]: ≥ 20 µM
- Kd [16, 46]: ≥ 20 µM
- Kd [17, 46]: ≥ 20 µM
- Kd [18, 46]: ≥ 20 µM
- Kd [30, 46]: ≥ 20 µM

- IC50 [36]: 0.853 µM
Sequence: STIRLLTSL

Sequence: REVFYFGKF
- Kd [37]: 2.35 µM
- Kd [38]: ≥ 20 µM
- Kd [39]: 3.04 µM
- Kd [8, 47]: ≥ 20 µM
- Kd [9, 47]: ≥ 20 µM
- Kd [10, 47]: ≥ 20 µM
- Kd [26, 47]: 0.0617 µM
- Kd [35, 47]: 0.813 µM
- Kd [40]: ≥ 20 µM
- Kd [28, 47]: ≥ 20 µM
- Kd [29, 47]: ≥ 20 µM
- Kd [15, 47]: ≥ 20 µM
- Kd [16, 47]: ≥ 20 µM
- Kd [17, 47]: ≥ 20 µM
- Kd [41]: ≥ 20 µM
- Kd [18, 47]: ≥ 20 µM
- Kd [30, 47]: ≥ 20 µM

Sequence: KQIANELNY
- Kd [42]: ≥ 76.9 µM
- Kd [12, 48]: ≥ 20 µM
- Kd [14, 48]: ≥ 20 µM
